According to US20250277048A1 (Regeneron, published 2025):

T1: mouse CD40 extracellular domain expressed with a C-terminal myc-myc-hexahistidine tag (mouse)
T1 construct: also called mCD40-MMH; REGN3098
T1 chain: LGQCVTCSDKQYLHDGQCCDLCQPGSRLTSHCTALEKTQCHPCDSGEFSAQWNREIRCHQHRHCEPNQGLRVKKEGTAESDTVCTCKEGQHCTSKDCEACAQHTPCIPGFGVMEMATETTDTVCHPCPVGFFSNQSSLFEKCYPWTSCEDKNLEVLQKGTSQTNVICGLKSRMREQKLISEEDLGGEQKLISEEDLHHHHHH

T2: monkey CD40 extracellular domain expressed with a C-terminal myc-myc-hexahistidine tag (monkey)
T2 construct: also called mfCD40-MMH; REGN3097
T2 chain: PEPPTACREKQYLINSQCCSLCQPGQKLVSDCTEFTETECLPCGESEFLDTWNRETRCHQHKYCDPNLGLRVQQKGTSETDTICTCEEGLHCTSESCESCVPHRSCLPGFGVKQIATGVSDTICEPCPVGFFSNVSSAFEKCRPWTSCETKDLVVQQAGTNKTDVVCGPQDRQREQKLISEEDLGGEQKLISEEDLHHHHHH

B1: 21520P2 (antibody, human IgG4 S228P, kappa, V domains shown)
VH: EVQLVESGGGLVQPGGSLRLSCAASGFTFGSYGMAWVRQAPGKGLEWVSAISGSGDYTNYADSVKRRFTISRDNSKNTLYLQMSSLRAEDTAVYYCAKEKTGTTGYLYSGMDVWGQGTTVTVSS
VL: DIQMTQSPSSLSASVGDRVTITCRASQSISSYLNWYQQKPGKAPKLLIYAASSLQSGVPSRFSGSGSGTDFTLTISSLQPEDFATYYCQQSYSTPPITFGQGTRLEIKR
notes: parental bivalent anti-CD40 mAb; common light chain; also called H4sH21520P2
B2: 30027P2 (antibody, human IgG4 S228P, kappa, V domains shown)
VH: EVQLVESGGGLVQPGGSLRLSCAASGFTFSSYAMNWVRQAPGKGLEWVSIISGTIGKTYYADSVKGRFTISRDNSKNTLYLQMNSLRGEDTAVYYCAKDTERDITGSPFDYWGQGTLVTVSS
VL: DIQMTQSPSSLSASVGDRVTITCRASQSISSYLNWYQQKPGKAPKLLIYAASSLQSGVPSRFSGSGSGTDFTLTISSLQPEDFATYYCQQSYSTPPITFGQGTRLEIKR
notes: parental bivalent anti-CD40 mAb; common light chain; also called H4sH30027P2
B3: 21519P2 (antibody, human IgG4 S228P, kappa, V domains shown)
VH: QLQLQESGPGLVRPSETLSLTCSVSGASMNTNNYYWGWIRQPPGKGLEWIGSGYYNGNTYYNPSLKSRVTISVDTSKNQFSLKLNSVTAADTAVYYCARQTPPRIIGSPNIWGQGTMVTVSS
VL: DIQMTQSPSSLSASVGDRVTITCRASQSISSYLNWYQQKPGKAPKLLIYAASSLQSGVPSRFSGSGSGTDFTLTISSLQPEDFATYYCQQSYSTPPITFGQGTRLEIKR
notes: parental bivalent anti-CD40 mAb; common light chain; also called H4sH21519P2
B4: REGN16431 (bispecific antibody, human IgG4 S228P, kappa)
heavy 1: QLQLQESGPGLVRPSETLSLTCSVSGASMNTNNYYWGWIRQPPGKGLEWIGSGYYNGNTYYNPSLKSRVTISVDTSKNQFSLKLNSVTAADTAVYYCARQTPPRIIGSPNIWGQGTMVTVSSASTKGPSVFPLAPCSRSTSESTAALGCLVKDYFPEPVTVSWNSGALTSGVHTFPAVLQSSGLYSLSSVVTVPSSSLGTKTYTCNVDHKPSNTKVDKRVESKYGPPCPPCPAPPVAGPSVFLFPPKPKDTLMISRTPEVTCVVVDVSQEDPEVQFNWYVDGVEVHNAKTKPREEQFNSTYRVVSVLTVLHQDWLNGKEYKCKVSNKGLPSSIEKTISKAKGQPREPQVYTLPPSQEEMTKNQVSLTCLVKGFYPSDIAVEWESNGQPENNYKTTPPVLDSDGSFFLYSRLTVDKSRWQEGNVFSCSVMHEALHNHYTQKSLSLSLGK
heavy 2: EVQLVESGGGLVQPGGSLRLSCAASGFTFGSYGMAWVRQAPGKGLEWVSAISGSGDYTNYADSVKRRFTISRDNSKNTLYLQMSSLRAEDTAVYYCAKEKTGTTGYLYSGMDVWGQGTTVTVSSASTKGPSVFPLAPCSRSTSESTAALGCLVKDYFPEPVTVSWNSGALTSGVHTFPAVLQSSGLYSLSSVVTVPSSSLGTKTYTCNVDHKPSNTKVDKRVESKYGPPCPPCPAPPVAGPSVFLFPPKPKDTLMISRTPEVTCVVVDVSQEDPEVQFNWYVDGVEVHNAKTKPREEQFNSTYRVVSVLTVLHQDWLNGKEYKCKVSNKGLPSSIEKTISKAKGQPREPQVYTLPPSQEEMTKNQVSLTCLVKGFYPSDIAVEWESNGQPENNYKTTPPVLDSDGSFFLYSRLTVDKSRWQEGNVFSCSVMHEALHNRFTQKSLSLSPGK
light: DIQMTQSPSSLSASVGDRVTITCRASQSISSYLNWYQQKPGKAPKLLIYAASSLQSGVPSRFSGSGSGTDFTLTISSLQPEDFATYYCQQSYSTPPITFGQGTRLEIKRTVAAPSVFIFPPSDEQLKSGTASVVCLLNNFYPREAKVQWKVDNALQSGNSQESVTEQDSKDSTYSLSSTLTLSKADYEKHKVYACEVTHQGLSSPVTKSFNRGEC
notes: D1 arm from 21519P2, D2 arm from 21520P2, common light chain; also called CD40xCD40 (21519 x 21520)
B5: REGN16432 (bispecific antibody, human IgG4 S228P, kappa)
heavy 1: EVQLVESGGGLVQPGGSLRLSCAASGFTFSSYAMNWVRQAPGKGLEWVSIISGTIGKTYYADSVKGRFTISRDNSKNTLYLQMNSLRGEDTAVYYCAKDTERDITGSPFDYWGQGTLVTVSSASTKGPSVFPLAPCSRSTSESTAALGCLVKDYFPEPVTVSWNSGALTSGVHTFPAVLQSSGLYSLSSVVTVPSSSLGTKTYTCNVDHKPSNTKVDKRVESKYGPPCPPCPAPPVAGPSVFLFPPKPKDTLMISRTPEVTCVVVDVSQEDPEVQFNWYVDGVEVHNAKTKPREEQFNSTYRVVSVLTVLHQDWLNGKEYKCKVSNKGLPSSIEKTISKAKGQPREPQVYTLPPSQEEMTKNQVSLTCLVKGFYPSDIAVEWESNGQPENNYKTTPPVLDSDGSFFLYSRLTVDKSRWQEGNVFSCSVMHEALHNHYTQKSLSLSLGK
heavy 2: B4 heavy 2
light: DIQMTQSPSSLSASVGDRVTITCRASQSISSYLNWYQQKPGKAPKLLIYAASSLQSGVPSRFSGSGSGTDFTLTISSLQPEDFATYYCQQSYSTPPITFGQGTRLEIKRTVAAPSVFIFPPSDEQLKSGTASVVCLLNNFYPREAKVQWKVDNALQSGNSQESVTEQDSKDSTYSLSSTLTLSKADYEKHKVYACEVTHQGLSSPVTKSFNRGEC
notes: D1 arm from 30027P2, D2 arm from 21520P2, common light chain; also called CD40xCD40 (30027 x 21520)

Assays:
[1] = target: T3, human CD40 (hCD40) expressed on cells (human, UniProt P25942 21-277); experiment: flow cytometry, HEK293/D9/hCD40 cells
T3 construct: whole, on cells; one entry for transfected and endogenous human CD40; the cell line is named under assay or readout; also called HEK293/D9/hCD40; Ramos 2G6.4C10
T3 sequence (P25942 21-277): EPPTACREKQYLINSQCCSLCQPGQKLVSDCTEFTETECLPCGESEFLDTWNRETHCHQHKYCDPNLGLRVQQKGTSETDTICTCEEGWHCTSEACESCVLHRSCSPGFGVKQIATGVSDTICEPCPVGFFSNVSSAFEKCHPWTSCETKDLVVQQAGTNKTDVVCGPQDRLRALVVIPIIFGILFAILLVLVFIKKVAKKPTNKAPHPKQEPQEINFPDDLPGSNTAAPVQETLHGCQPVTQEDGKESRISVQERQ
Method: Cells were washed with 2% FBS (w/v) in 1×PBS (flow cytometry staining buffer) by centrifugation with benchtop Centrifuge 5810R (Eppendorf®, Hamburg, Germany). Cells were incubated for 30 minutes at 4° C. with serial dilutions of following antibodies ranging from 1.7 pM to 100 nM in flow cytometry staining buffer (1) anti-CD40×CD40 bispecific antibodies, or (2) parental anti-CD40 antibodies (bivalent antibodies comprising 2 fragment antigen-binding [Fab] arms identical to one of the two anti-CD40 Fab of bispecific anti-CD40×CD40 antibodies), or (3) anti-CD40×Irrelevant antibodies (bivalent antibodies that incorporate one Fab arm identical to one of anti-CD40 Fab of anti-CD40×CD40 antibodies and another Fab arm specific to an irrelevant antigen, i.e. birch pollen main allergen Bet v1), or (4) human IgG4 isotype control antibodies with Fc mutation. After washing, cell bound antibodies were detected with 2.5 μg/ml Allophycocyanin (APC)-conjugated goat anti-human IgG antibody specific for the Fcγ fragment (Jackson Immunoresearch, West Grove, PA) for 30 minutes at 4° C. Cells were washed and subsequently fixed with 50% solution of Cytofix™ Fixation Buffer (BD, Franklin Lakes, NJ) in flow cytometry staining buffer for 20 minutes at room temperature. Cells were washed and resuspended in flow cytometry staining buffer and stored at 4° C. for downstream flow cytometry analysis.
Acquisition of fluorescence signals were recorded on the ZE5 Cell Analyzer (Bio-Rad, Hercules, CA) according to the manufacturer's recommended procedure and flow cytometry data analysis was performed using the open-source R packages flowCore, flowStats, flowDensity, ggCyto, and flowAI. Multiplexed samples were deconvoluted and individual cell populations were identified based on their unique CellTrace™ fluorescence signature. APC Median Fluorescence intensity (MFI) was recorded to indicate the binding intensity of each antibody over a range of concentrations. Antibodies with MFI greater than 1500 at the highest tested concentration (100 nM) were classified as specific binders. In addition, direct binding signals (APC MFI) were analyzed as a function of the antibody concentration and data were fitted with a sigmoidal (four-parameter logistic) dose-response model using GraphPad Prism™ software.

[2] = target: T3, human CD40 (hCD40) expressed on cells; experiment: cell-based or functional assay
[3] = target: T3, human CD40 (hCD40) expressed on cells; experiment: cell-based or functional assay; remark: listed apart in the source
[4] = target: T1, mouse CD40 extracellular domain …; experiment: SPR Biacore 4000, mAb captured, 25C
Method: (§1) The equilibrium dissociation constants (KD) for anti-CD40 bivalent and bispecific monoclonal antibodies (mAbs) were determined using a real-time surface plasmon resonance (SPR)-based Biacore 4000 biosensor. All binding studies were performed in 10 mM HEPES, 150 mM NaCl, 3 mM EDTA, and 0.05% v/v surfactant Tween-20, pH 7.4 (HBS-ET) running buffer at 25° C. and 37° C. The Biacore CM5 sensor surface was first derivatized by amine coupling with a monoclonal mouse anti-human Fc antibody (REGN2567) to capture anti-CD40 bivalent parental and anti-CD40×CD40 bispecific antibodies. Different concentrations of CD40 reagents, human CD40 extracellular domain expressed with a C-terminal myc-myc-hexahistidine tag (SEQ ID NO: 1114) (“hCD40-MMH”; REGN3094; SEQ ID NO: 53), monkey CD40 extracellular domain expressed with a C-terminal myc-myc-hexahistidine tag (SEQ ID NO: 1114) (“mfCD40-MMH”; REGN3097; SEQ ID NO: 54), and mouse CD40 extracellular domain expressed with a C-terminal myc-myc-hexahistidine tag (SEQ ID NO: 1114) (“mCD40-MMH”; REGN3098; SEQ ID NO: 55), at concentrations ranging from 3.7 nM to 100 nM or 3.3 nM to 90 nM in a series of 3-fold dilutions prepared in HBS-ET running buffer were injected at a flow rate of 30 μL/min for 4 minutes or 50 μL/min for 5 minutes. The dissociation of different CD40 reagents bound to anti-CD40 bivalent parental and anti-CD40×CD40 bispecific antibodies was monitored for 10 minutes in HBS-ET running buffer. At the end of each cycle, the anti-CD40 bivalent parental and anti-CD40×CD40 bispecific antibodies capture surface was regenerated using a 12 sec injection of 20 mM H₃PO₄.
(§2) The association rate (ka) and dissociation rate (kd) were determined by fitting the real-time binding sensorgrams to a 1:1 binding model with mass transport limitation using Scrubber 2.0c curve-fitting software. Binding dissociation equilibrium constant (KD) and dissociative half-life (t_{1/2}) were calculated from the kinetic rates as: KD(M)=kd/kₐ, and t_{1/2} (min)=[ln(2)/(60*kd)].

[5] = target: T4, human CD40 extracellular domain expressed with a C-terminal myc-myc-hexahistidine tag (human); experiment: SPR Biacore 4000, mAb captured, 25C
T4 construct: also called hCD40-MMH; hCD40-mmH
Method: as §1, §2

[6] = target: T2, monkey CD40 extracellular domain …; experiment: SPR Biacore 4000, mAb captured, 25C
Method: as §1, §2

Binder	EC50 [1] [nM]	MFI at 100 nM [1] [MFI]	IC50, 900 pM hCD40L, Raji NFkB-luc [2] [M]	Max % activation, no ligand, Raji NFkB-luc [2] [%]	Max % inhibition, 900 pM hCD40L, Raji NFkB-luc [2] [%]	Max % activation, no ligand, Ramos NFkB-luc [3] [%]	Max % inhibition, 500 pM hCD40L, Ramos NFkB-luc [3] [%]	100 nM Ag Bound [4] [RU]	100 nM Ag Bound [5] [RU]	Kd [5] [nM]	koff [5] [s⁻¹]	kon [5] [M⁻¹ s⁻¹]	t1/2 [5] [min]	100 nM Ag Bound [6] [RU]	Kd [6] [nM]	koff [6] [s⁻¹]	kon [6] [M⁻¹ s⁻¹]	t1/2 [6] [min]	binding result [4]	IC50, 500 pM hCD40L, Ramos NFkB-luc [3] [M]	also measured
B1	0.82	20700	7.7e-11	25	81	49	63	-0.5	76.6	25.1	0.0223	885000	0.5	10.1	67.7	0.203	3e+06	0.1	–	–	EC50, no ligand, Raji NFkB-luc [2]: > 100 nM; EC50, no ligand, Ramos NFkB-luc [3]: > 10 nM; IC50, 500 pM hCD40L, Ramos NFkB-luc (three highest concentrations excluded, hook effect) [3]: 8.06e-11 M
B2	0.72	20900	8.95e-12	9	67	8	-130	0.2	62	1.83	0.000998	546000	11.6	63.1	0.901	0.00102	1.14e+06	11.3	no binding (tested: 100 nM)	–	EC50 (potentiation), 500 pM hCD40L, Ramos NFkB-luc [3]: 8.14e-12 M
B3	1.3	20200	6.05e-11	15	92	13	88	0.4	99	8.82	0.00339	–	3.4	10.3	205	0.181	886000	0.1	no binding (tested: 100 nM)	3.09e-11	–
B4	1.9	29500	1.07e-10	13	82	6	90	–	61.2	0.101	0.000149	1.47e+06	77.5	–	–	–	–	–	–	8.54e-11	–
B5	1.5	30300	1.02e-10	5	68	4	94	–	56.6	0.163	0.000125	769000	92.3	–	–	–	–	–	–	4.92e-11	–
